From patent publication US20250215499A1 (CHINESE UNIVERSITY OF HONG KONG, published 2025)

Columns and labels:
BECN1 = biological target: T1, BECN1 (UniProt Q14457 1-450, limits assumed); test: co-immunoprecipitation
T1 construct: The ubiquitination co-IPs used endogenous protein from T-REx-293 and KYSE150 cells; also called Beclin 1; Beclin 1/BECN1

SQSTM1/p62 = SQSTM1/p62 (UniProt Q13501 2-440, limits assumed); test: co-immunoprecipitation

T1 sequence (Q14457 whole entry): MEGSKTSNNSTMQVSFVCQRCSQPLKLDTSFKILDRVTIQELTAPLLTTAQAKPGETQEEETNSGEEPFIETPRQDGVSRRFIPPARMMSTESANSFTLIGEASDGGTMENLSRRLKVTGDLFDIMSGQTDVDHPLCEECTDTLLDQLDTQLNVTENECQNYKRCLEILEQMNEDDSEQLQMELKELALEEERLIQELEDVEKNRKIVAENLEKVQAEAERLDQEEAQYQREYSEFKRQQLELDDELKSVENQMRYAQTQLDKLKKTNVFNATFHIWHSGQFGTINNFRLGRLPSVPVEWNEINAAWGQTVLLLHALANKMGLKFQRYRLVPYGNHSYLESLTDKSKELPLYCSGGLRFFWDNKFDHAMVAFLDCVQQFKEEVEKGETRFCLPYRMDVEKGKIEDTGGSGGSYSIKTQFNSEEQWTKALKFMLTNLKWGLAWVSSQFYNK

binding result (BECN1): no binding
binding result (SQSTM1/p62): no binding
B1: SP0495 (small protein of KIAA0495), encoded by KIAA0495-ORF2 (other)
chain: MCLLSSSAASDLAATSLTAHPCHPPLPRQPQPQLILSGSPSIGTVPPPAVGHTSLLPVNPPAISTTTSDLSAREDATPSASTGHLSVFPAFQVKIPAVPSEQTSQSFSEASHRVLPGGGPRCSRDFGAGVAGHLGLGIFGVGFGSPALLQSVVDENSCCLLYVVEDQLCDVEQAFRAEHLGQHQSGSGTGCRHCPQRPAAL
notes: The 1-18 transmembrane/signal peptide domain is only a bioinformatic prediction and was not removed; also called KIAA0495-ORF2/SP0495; KIAA0495-ORF2 protein
